Numbering of substitutions follows the chain as printed.

For orientation: Kd means the equilibrium constant for the complex coming apart. A higher Kd goes with lower affinity.

Common to all, as to assay: EMSA
(In general: In EMSA bound probe runs differently from free probe, usually more slowly.)

The target of series [1] is T1, phi29 DNA polymerase F526L F526L (Bacillus phage phi29) (UniProt P03680).
T1 sequence: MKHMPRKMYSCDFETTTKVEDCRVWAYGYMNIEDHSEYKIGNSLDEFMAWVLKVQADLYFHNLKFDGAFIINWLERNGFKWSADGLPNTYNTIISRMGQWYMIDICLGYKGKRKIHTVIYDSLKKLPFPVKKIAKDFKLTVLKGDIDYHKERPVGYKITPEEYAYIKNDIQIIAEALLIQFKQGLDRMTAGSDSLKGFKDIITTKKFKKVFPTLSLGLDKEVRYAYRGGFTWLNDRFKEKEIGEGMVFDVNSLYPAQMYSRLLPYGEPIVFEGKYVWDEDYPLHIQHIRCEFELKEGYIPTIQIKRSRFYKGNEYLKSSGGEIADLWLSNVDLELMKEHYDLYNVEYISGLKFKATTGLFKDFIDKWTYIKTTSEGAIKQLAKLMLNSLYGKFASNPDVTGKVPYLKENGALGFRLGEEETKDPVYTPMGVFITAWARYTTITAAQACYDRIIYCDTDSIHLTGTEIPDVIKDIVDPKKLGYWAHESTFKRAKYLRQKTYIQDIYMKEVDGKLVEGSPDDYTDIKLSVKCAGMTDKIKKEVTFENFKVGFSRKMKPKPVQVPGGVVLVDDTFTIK
The note with it: SD 24.2; unit not given (μM in assay); pH 7.9, 66 mM K-acetate, 30 C.

For series [2], the target named is T2, phi29 DNA polymerase wild-type (Bacillus phage phi29) (UniProt P03680).
T2 sequence: T1 sequence with L526F
The note with it: SD 5.7; unit not printed in table (enzyme titrated 0-600 μM, 2 μM DNA as printed); Tris-acetate pH 7.9, 66 mM K-acetate, no Mg listed, 30 C.

Series [3] deals with T3, phi29 DNA polymerase Q497P Q497P (Bacillus phage phi29) (UniProt P03680).
T3 sequence: T1 sequence with Q497P, L526F
The note with it: SD 50.2; unit not given (μM in assay); pH 7.9, 66 mM K-acetate, 30 C.

Series [4] concerns the target T4, phi29 DNA polymerase G197D G197D (Bacillus phage phi29) (UniProt P03680).
T4 sequence: T1 sequence with G197D, L526F
The note with it: SD 25.7; unit not given (μM in assay); pH 7.9, 66 mM K-acetate, 30 C.

As to “GATCACAGTGAGTAC / TCTATTGTACTCACTGTGATC [15-mer/21-mer primer/template]”, the Kd in series [1] amounted to 53 µM; in series [2] it was 76 µM; in series [3], 73 µM; in series [4] it was 51 µM.

Values taken from patent publication US20140322759.
